Drawing on article PMC10751729 (Protein Science : A Publication of the Protein Society, 2024), this text covers IC50 for one molecule.

In the assay the target is GST‐LC3B (human, UniProt Q9GZQ8 1-120). In words: AlphaScreen or HTRF. For orientation: Alpha assays give light when donor and acceptor beads are brought close together.

Molecule SGGDDDWTHLS [LIRtide] yielded an IC50 of 1700 nM.

As usually defined, the IC50 is the concentration at which inhibition is half-maximal. The low end stands for higher potency, the high end for lower potency.
